# Source: patent US20180155451A1 (published 2018)
# T1: FcγRIIa R (human FcγRIIa, allotype R, Arg at position 131), extracellular domain with C-terminal His tag (human, UniProt P12318 34-217)
# T1 construct: extracellular domain; expressed in FreeStyle293 cells; analyte in Biacore; also called 2aR; FcgRIIa R
# T1 sequence (looked up): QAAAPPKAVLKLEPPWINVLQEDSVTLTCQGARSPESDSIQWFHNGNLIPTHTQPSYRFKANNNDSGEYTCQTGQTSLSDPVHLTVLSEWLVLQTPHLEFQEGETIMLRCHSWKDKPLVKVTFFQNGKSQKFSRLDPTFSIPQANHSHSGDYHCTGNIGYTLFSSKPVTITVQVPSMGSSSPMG
# T2: FcγRIIb (human, UniProt P31994 43-217)
# T2 construct: extracellular domain; also called FcgRIIb; 2b; not shown: His tag at the C terminus
# T2 sequence (looked up): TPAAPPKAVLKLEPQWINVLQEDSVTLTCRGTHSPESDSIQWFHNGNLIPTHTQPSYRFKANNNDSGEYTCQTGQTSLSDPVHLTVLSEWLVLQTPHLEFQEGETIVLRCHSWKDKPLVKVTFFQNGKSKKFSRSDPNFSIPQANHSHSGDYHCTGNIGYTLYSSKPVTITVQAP
# B1: GpH7-A5/GpH7-B3 variant S298_06M/GpL16-k0 (antibody, human IgG1, kappa)
# heavy 1: not shown
# heavy 2: not shown
# light: DIVMTQSPLSLPVTPGEPASISCQASESLVHSNRNTYLHWYLQKPGQSPQLLIYKVSNRFSGVPDRFSGSGSGTDFTLKISRVEAEDVGVYYCSQNTHVPPTFGQGTKVEIERTVAAPSVFIFPPSDEQLKSGTASVVCLLNNFYPREAKVQWKVDNALQSGNSQESVTEQDSKDSTYSLSSTLTLSKADYEKHKVYACEVTHQGLSSPVTKSFNRGEC
# notes: heterodimerized antibody, mutation in one H chain only; also called He Ab
# B2: GpH7-A5/GpH7-B3 variant P238_16H/GpL16-k0 (antibody, human IgG1, kappa)
# heavy 1: not shown
# heavy 2: not shown
# light: B1 light
# notes: as for B1
# B3: GpH7-A5/GpH7-B3 variant P271_09D/GpL16-k0 (antibody, human IgG1, kappa)
# heavy 1: not shown
# heavy 2: not shown
# light: B1 light
# notes: as for B1
# B4: GpH7-A5/GpH7-B3 variant P331_03V/GpL16-k0 (antibody, human IgG1, kappa)
# heavy 1: not shown
# heavy 2: not shown
# light: B1 light
# notes: as for B1
# B5: GpH7-A5/GpH7-B3 variant S298_08L/GpL16-k0 (antibody, human IgG1, kappa)
# heavy 1: not shown
# heavy 2: not shown
# light: B1 light
# notes: as for B1
# B6: GpH7-A5/GpH7-B3 variant S324_06M/GpL16-k0 (antibody, human IgG1, kappa)
# heavy 1: not shown
# heavy 2: not shown
# light: B1 light
# notes: as for B1
# B7: GpH7-A5/GpH7-B3 variant P271_10E/GpL16-k0 (antibody, human IgG1, kappa)
# heavy 1: not shown
# heavy 2: not shown
# light: B1 light
# notes: as for B1
# B8: GpH7-A5/GpH7-B3 variant P238_20W/GpL16-k0 (antibody, human IgG1, kappa)
# heavy 1: not shown
# heavy 2: not shown
# light: B1 light
# notes: as for B1
# B9: GpH7-A5/GpH7-B3 variant S267_19Q/GpL16-k0 (antibody, human IgG1, kappa)
# heavy 1: not shown
# heavy 2: not shown
# light: B1 light
# notes: as for B1
# B10: GpH7-A5/GpH7-B3 variant S267_09D/GpL16-k0 (antibody, human IgG1, kappa)
# heavy 1: not shown
# heavy 2: not shown
# light: B1 light
# notes: as for B1
# B11: GpH7-A5/GpH7-B3 variant S267_06M/GpL16-k0 (antibody, human IgG1, kappa)
# heavy 1: not shown
# heavy 2: not shown
# light: B1 light
# notes: as for B1
# B12: GpH7-A5/GpH7-B3 variant P238_19Q/GpL16-k0 (antibody, human IgG1, kappa)
# heavy 1: not shown
# heavy 2: not shown
# light: B1 light
# notes: as for B1
# B13: GpH7-A5/GpH7-B3 variant P238_15Y/GpL16-k0 (antibody, human IgG1, kappa)
# heavy 1: not shown
# heavy 2: not shown
# light: B1 light
# notes: as for B1
# B14: GpH7-A5/GpH7-B3 variant K326_14T/GpL16-k0 (antibody, human IgG1, kappa)
# heavy 1: not shown
# heavy 2: not shown
# light: B1 light
# notes: heterodimerized IgG1; alteration in the GpH7-B3 H chain only; also called He Ab
# B15: GpH7-A5/GpH7-B3 variant P271_01G/GpL16-k0 (antibody, human IgG1, kappa)
# heavy 1: not shown
# heavy 2: not shown
# light: B1 light
# notes: as for B14
# B16: GpH7-A5/GpH7-B3 variant K326_15Y/GpL16-k0 (antibody, human IgG1, kappa)
# heavy 1: not shown
# heavy 2: not shown
# light: B1 light
# notes: as for B14
# B17: GpH7-A5/GpH7-B3 variant K326_20W/GpL16-k0 (antibody, human IgG1, kappa)
# heavy 1: not shown
# heavy 2: not shown
# light: B1 light
# notes: as for B14
# B18: GpH7-A5/GpH7-B3 variant K326_19Q/GpL16-k0 (antibody, human IgG1, kappa)
# heavy 1: not shown
# heavy 2: not shown
# light: B1 light
# notes: as for B14
# Target: T1, FcγRIIa R (human FcγRIIa, allotype R, …)
# Assay: SPR (Biacore), relative binding vs GpH7-A5/GpH7-B3/GpL16-k0
row,He/Con_2aR,Binder
1,"108 relative, control = 100",B1
2,"122 relative, control = 100",B2
3,"110 relative, control = 100",B3
4,"114 relative, control = 100",B4
5,"105 relative, control = 100",B5
6,"123 relative, control = 100",B6
7,"103 relative, control = 100",B7
8,"117 relative, control = 100",B8
9,"135 relative, control = 100",B9
10,"173 relative, control = 100",B10
11,"122 relative, control = 100",B11
12,"104 relative, control = 100",B12
13,"156 relative, control = 100",B13

# Target: T3, FcγRIa (human, UniProt P12314 16-292)
# T3 construct: extracellular domain; also called FcgRI; 1a; not shown: His tag at the C terminus
# Assay: SPR (Biacore); He/Con_1a (FcγRIa) divided by He/Con_2b (FcγRIIb)
# T3 sequence (P12314 16-292): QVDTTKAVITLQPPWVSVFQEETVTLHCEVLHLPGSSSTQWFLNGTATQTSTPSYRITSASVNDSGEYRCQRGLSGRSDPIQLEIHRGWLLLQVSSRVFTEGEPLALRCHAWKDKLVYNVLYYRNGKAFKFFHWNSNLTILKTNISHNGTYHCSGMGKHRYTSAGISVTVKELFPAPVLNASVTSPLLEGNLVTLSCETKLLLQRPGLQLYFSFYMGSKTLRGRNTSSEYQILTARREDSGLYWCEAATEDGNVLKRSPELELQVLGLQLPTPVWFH
row,Ia/IIb He_1a/2b,Binder
1,0.7 ratio,B14
2,0.54 ratio,B15
3,0.66 ratio,B16
4,0.69 ratio,B17
5,0.73 ratio,B18

# Target: T3, FcγRIa
# Assay: SPR (Biacore), antibody captured, FcγR as analyte; binding as % of GpH7-A5/GpH7-B3/GpL16-k0
row,He/Con_1a,Binder
1,104 % of control,B14
2,105 % of control,B15
3,106 % of control,B16
4,103 % of control,B17
5,102 % of control,B18

# Target: T2, FcγRIIb
# Assay: as above
row,He/Con_2b,Binder
1,150 % of control,B14
2,193 % of control,B15
3,159 % of control,B16
4,148 % of control,B17
5,139 % of control,B18
